Measurements taken from the supplement of paper PMC11502859.

Tested on: HEK293T
Assay: median enrichment of reporter reads in eGFP-reduced (low/intermediate) vs eGFP-high sorted cells (eGFP-extension fusion abundance) (ratio); higher = stronger loss of eGFP-fusion protein abundance (more destabilising extension)
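Also: lentiviral eGFP-IRES-mCherry reporter pool sorted by FACS 96 h post-transduction, gated on mCherry-high cells, Illumina read counts normalized per million, median across four biological replicates.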

Substance	median enrichment
QPWGWTVDPTSLREGGMAGCEDNSS [POLR3H]	0.421
QPWQ [ADGRL3]	0.354
QPWSITLPPSPGTTGPITFECCIWISRCLCGSLPHFSWT [UBE2Q1]	7.69
QQFSHFLHLSDRTHHLCLP [ZDHHC15]	20.5
QQLRLHQRQHTKKL [BCAS3]	1.16
QQQ [Gln03]	0.325
QQQQ [Gln04]	0.501
QQQQQ [Gln05]	0.381
QQQQQQ [Gln06]	0.198
QQQQQQQ [Gln07]	0.347
QQQQQQQQ [Gln08]	0.342
QQQQQQQQQ [Gln09]	0.104
QQQQQQQQQQ [Gln10]	0.317
QQQYYRGLNNTTKSIWIA [NCAM2]	25
QRCEGIGETLGWLVMVSIAGHQKLDS [B4GALNT2]	4.77
QRFSSEKNLCLIF [PHACTR3]	9.78
QRHASFTISGKRTHCAYSDCRVYKRQPFGYYCCKVQILQASSDICIYCHYCLWKKQGIKVPVHLMYYFL [NEUROD1]	14.6
QRHGVLGGLMGTGACIFCWGMKLITLL [AGBL4]	4.93
QRKKRKTALGLAYGLRGCCC [WEE2]	6.66
QRLAPACTPAPAAGSPQSQPFGTVLTL [ABCG4]	28.4
QRLDMLSPNEPLSSPGEGR [ISX]	0.656
QRLMQERCEGLRAGDCAILKPPLDLRTPRVGTSRVVGQPGSLYCGFSEA [MEIS3]	6.79
QRLQCLLRRKIKFTSSKVTLEDRALGMSFFF [OR2C3]	5.9

Substance	median enrichment
QRPLPGPSPAPRAPRPGPGARQTPACAPAERRLETGATASRVQQHSRHGSGRDSAWPRGTFPGQGPGGNWHGLVPLLCCILIP [ANKRD13B]	7.68
QRPVLVSHPCHSRSLPVPLLPKMPWLDWTPSPHDHASDCHPLPVPKSMCTPLTTGTAPPNHRHQATI [PTPRCAP]	8.88
QRQ [GNB1]	0.344
QRRERCASILEGQQEAELFCLDSHHGPFAENCLGFQQLHICICEL [TAFA4]	18.2
QRRQMQTKAT [TWSG1]	0.373
QRTTEHLVSQNGLTTVSTTYSQMSISTSVELK [CYLC1]	1.57
QSCSIHIGLMD [ZCCHC10]	0.408
QSFTSKFYLLCLPLLSRRSCLLPGSLTCSLS [LRRC1]	18
QSIQQSLIRHAKI [SDHAF3]	4.37
QSKQGRNVQVNNKSPHTLLTPWRQLLFRSFICLLQESFLPLT [SIRPD]	4.67
QSMF [TMEM196]	0.507
QSPSAARKCWSWSKIGFFKIFLVIREYI [PSD3]	7.26
QSPSVLPLSPLSPWPVVVPQPLPPSTSSVSPSPRLINLLIDCDSK [ERGIC3]	9.24
QSQEPSSLI [CNDP1]	0.195
QSQPQLMPSQSQPPVTPSQSQPRVTPSQSQPHVTPYRSKSGKQKQSVPIPKTVSRKGTLKK [ADAM29]	0.14
QSSAQRRGSMC [FAM49A]	0.176
QSSF [PCNX4]	0.571
QSSLSR [SCAF8]	1.11
QSSQSSARP [SNX32]	0.324
QSSYPLEEDCFQII [KDSR]	0.764
QSTF [ST8SIA4]	0.477
QSTGRKCFWTEVVAVEGVASSCRQTIILEILVEVPSPIRHSNMSTNALKWN [EPHA3]	14.9
QSTLTYFQKYNFRYHANFMTSKGCCYNVLTER [TDGF1]	6.46

Substance	median enrichment
QSTTALSS [GALNT4]	0.487
QSVISFICCINV [LRP1B]	11.7
QSWWPQPLASDTLYLKNNCAL [CALB1]	5.97
QSYHSGC [USP32]	0.623
QTA [FMR1]	0.337
QTAKKEKLN [PTMA]	0.399
QTFCSYRLKYLLPIRFFCDMCLPAVN [CCDC59]	6.05
QTGFLSSLKRLLCLRKSICCVSLASGSRTDLQLPNWILLPRSCSEVSFYHSAL [HLA-DPB1]	7.45
QTGHPTHLHAKILPASSLRVPW [UBL4B]	4.81
QTGQDPSTCTC [FCN1]	0.258
QTGRLDF [RPL24]	0.466
QTGWPGPNP [EMILIN3]	0.352
QTHGTDSLGN [DPF3]	0.444
QTLCALCVRPVPAS [USP10]	7.74
QTLGNSISCIFDQIVTSFCI [RAB18]	5.83
QTLPFLFEFFRGKG [PCBD1]	2.9
QTSLHFILF [FABP1]	24.1
QTTFPKENIRGFHC [CPVL]	0.323
QTVEWLKLLSRRIYTSDLRRETLTPQWLHLL [HIST1H2BJ]	10.5
QTVKEGVFVWTR [DSC1]	2.42
QVFGKQQRASPLPGGLPCRFWASFPCLSLFRCAFHL [MAP2K1]	13.2
QVISQSIYVLSNM [PSMA1]	7.19
QVLSPNNFFLSEVKGLKISWK [ENOSF1]	10.9

Substance	median enrichment
QVNANSIVEPGV [PRKCB]	0.284
QVPFPLLNIKLNSI [NSMAF]	2.85
QVRLVQEHKLPPSPSPPPPGPGLKQPEDSPRGWLSPAAGSAFTWGGGAGLTLNPPPRQVGEGSHHSKCL [SLC2A4RG]	2.26
QVTGNLSHLPFSSGTTLHKCVPRGSPFLSSSTENAARSSYPSSRGPAAMLYAPEGTLVPRKERKKRDGLWLHFLGP [VAMP8]	7.27
QVVHIYGIWYEILICVYNT [ZNF230]	47.2
QWLSGSMC [LYPD6]	0.958
QWPHPHWAQARRGPAHAHTTGQGCGAGAIPAPFPGPRGLGSLPSHPGLVPPGAPTVEIRRGWNGGRGGAGGPHPSAALGLGPH [GNB2]	7.88
QWPSDDS [COL15A1]	0.307
QWRGEGRLGALGGWEMLASKRLTGREAGTCPQHKRQVYPGSL [BTBD18]	8.86
QWSWLRVGEGTWA [RTP2]	2.67
QYLTGHHRILWIFFPSFWFWFRANSCFIGTVYEAFETKNNEE [GALC]	6.16
QYNF [PPP1R42]	0.505
QYT [ZMYM5]	0.736
QYTF [PNISR]	1.03
RAALLSSQAAPVPSPSTLEWSSSACFPSHRPATTPTMCRKHCLTIPHPPDNSQGWSPGHFQLLLSPCIVSLLCFFSLPPLLFL [RAB15]	7.07
RAAPPSGQKLK [ALG1L]	0.251
RAAQKETTKPLTVVTLDKETPVA [CAPRIN2]	45.5
RACGAAGAGEASRGRVLRQELDSPTLLSSRQGPGSHILLTLERLELTPLDGKCISEKGKAAWGSPI [SLC1A7]	9.89
RACQEVTTSLLPAAWARTALRFEGNMDPFGPAGTGHIPHPRATMGVGNFLVCFLIYL [PLEKHH3]	8.55
RAETSALLTLRDTTRLHGEV [CORO2A]	6.49
RAGPAPCPRSPLLSRPHPPPARPTRGATPPFESLAVGWTLPFPEAA [C1QL4]	13.1
RAGVCWHRQPPLWALGGPLKGSPTRGPDESFLSGVGSQRGSPPAAWGRAWPGRVIQRVCQPLTGSPSVAATRSTELLQPRGQL [FAM53B]	6.39
RAHELRL [TNFAIP8]	0.408
